Columns and labels:
[1] = system: MS2 coat protein; test: apparent KD of MS2 coat protein, switch OFF state (with FMN for OFF switches, without FMN for ON switches); designed switch direction (-1 OFF switch, 1 ON switch): 1; higher = weaker reporter binding; settings: FMN input: 0 or 200 uM; Eterna round: R93 (includes R88 designs)
How it was run: (§1)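 Designed RNA switches were made by on-chip transcription from Illumina sequencing clusters and then titrated with SNAP-549-labelled MS2 coat protein. Twofold steps ran from 0.7 or 1.5 nM to 3 µM, each lasting 0.8–1.5 h early and 10–20 min late, in 100 mM Tris-HCl pH 7.5, 80 mM KCl, 4 mM MgCl2, without or with constant ligand. Apparent KD is the per-design median of normalised cluster binding-curve fits.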

[2] = system: MS2 coat protein; test: apparent KD of MS2 coat protein, switch ON state; designed switch direction (-1 OFF switch, 1 ON switch): 1; higher = weaker reporter binding; settings: FMN input: 0 or 200 uM; Eterna round: R93 (includes R88 designs)
How it was run: as §1

| Sequence | apparent KD of MS2 coat protein [1] [nM] | apparent KD of MS2 coat protein [2] [nM] |
| --- | --- | --- |
| AAAAAACAUGAGGAUCACCCAUGUCAAAAGACGUGAGGAUAUGUACAGACUUCGGUCUGUACAGAAGGCAUGAAAA [SS1 - 1056] | 136 | 32 |
| AAAAAACAUGAGGAUCACCCAUGUCCUCGGACGUGAGGAUAUGUACAGACUUCGGUCUGUACAGAAGGCACGUAAA [SS1 - 1042] | 402 | 492 |
| AAAAAACAUGAGGAUCACCCAUGUCGAAAGACAUGAGGAUAUGUACAGACUUCGGUCUGUACAGAAGGCAUGUAAA [SS1 - 1016] | 813 | 104 |
| AAAAAACAUGAGGAUCACCCAUGUCUUCGGACGUGAGGAUAUGUACAGACUUCGGUCUGUACAGAAGGCAUGAAAA [SS1 - 1058] | 381 | 176 |
| AAAAAACAUGAGGAUCACCCAUGUCUUUUGACAUGAGGAUAUGUACAGACUUCGGUCUGUACAGAAGGCAUGUAAA [SS1 - 1028] | 397 | 31.1 |
| AAAAAACAUGAGGAUCACCCAUGUGAGAACAAGGGAGGAUAUACGAAGACGAAAGUCGAAGUAGAAGGCCUAAAAA [Garnet 81] | 46.6 | 23.3 |
| AAAAAAUAAAAAAAGGAUAUAAAUCCUAGAACAUGAGGAUCACCCAUGUACUAGGAAAAAAUAAAAAAGAAGGAAAAAUAAAAAA [SS2: MS2 19] | 17.3 | 18.1 |
| AAAAAAUAAAAAAAGGAUAUAAUGCUACAGACAUGAGGAUCACCCAUGUAGGUAGCAUUAAUAAAAAAGAAGGAAAAAUAAAAAA [SS2: MS2 32] | 15.3 | 9.09 |
| AAAACACAUGAGGAUCACCCAUGUAGAAAUACGGGAGGAUAUGCGAAAACGAAAGACAAAGUAGAAGGCCUAAAAG [saturn 8] | 69.8 | 35.9 |
| AAAAGACAUGAGGAUCACCCAUGUAAAAACAUAGGAGGAUAUGUCUGGAAACCAGACUGGACAGAAGGCCUUUGUC [SS1 - 63] | 29.4 | 24.8 |
| AAAAGACAUGAGGAUCACCCAUGUAAAAACGUAGGAGGAUAUGUCGUGAAAAAAGACUUGACAGAAGGCCUGUGUC [SS1 - 35] | 39 | 25.9 |
| AAAAGACAUGAGGAUCACCCAUGUCAAGACGUAGGAGGAUAUGUCUUGAAAAAAGACUUGACAGAAGGCCUGUGUC [SS1 - 55] | 18.1 | 14.9 |
| AAAAGACAUGAGGAUCACCCAUGUCCUCGGACAUGAGGAUAUGUACAGACUUCGGUCUGUACAGAAGGCAUGAAAA [SS1 - 1064] | 233 | 52 |
| AAAAGACAUGAGGAUCACCCAUGUGAAAACGUAGGAGGAUAUGUCGUGAAAAAAGACUUGACAGAAGGCCUGUGUC [SS1 - 34] | 63.5 | 28.1 |
| AAAAUAAAAAGGUAGGAUAUGGGUAAGUCUACAUGAGGAUCACCCAUGUAAUAAAAAGAAAAAAACCAGAAGGACCAAAAUAAAA [72%, More Wateronthemoon, 11] | 50.1 | 20.2 |
| AAAAUAAAAUAAAAGGAUAUAAAAUAAAAAACAUGAGGAUCACCCAUGUAAAAACAUGGGUGAAAAAAGAAGGAAAAAUAAAAAA [SS2: 70 No MS2] | 1.74 | 36.7 |
| AAAAUAAAAUAAAAGGAUAUAAAGAUAUAUACAUGAGGAUCACCCAUGUAUAUAUCAAUAAAAUAAAAGAAGGAAUAAAAAUAAA [SS2 510: MS2 10] | 18 | 14.8 |

| Sequence | apparent KD of MS2 coat protein [1] [nM] | apparent KD of MS2 coat protein [2] [nM] |
| --- | --- | --- |
| AAAAUACAUGAGGAUCACCCAUGUGAAAAUAUGGAAGGAUAUCAUGGAAAAAAAAAAACAUGAGAAGGUCCAAAAA [SS! 1 MT 9] | 123 | 22 |
| AAAAUACAUGAGGAUCACCCAUGUGAAAAUAUGGGAGGAUAUACAAACACGAAAGUGAAAGUAGAAGGCCUAAAAA [SS! MT 15] | 231 | 51.6 |
| AAAAUACAUGAGGAUCACCCAUGUGAAAAUAUGGGAGGAUAUACCGAAAAAAAAAAAACGGUAGAAGGCCCUAAAA [SS! 1 MT 6] | 41.6 | 17.9 |
| AAAAUACAUGAGGAUCACCCAUGUGAGUCGAACGCAGGAUAUGCCCGUUGAAAAGGGCGGGCAGAAGGGUGCCGAA [SameState1-IV] | 61.7 | 34.4 |
| AAAAUAUAAAGAGAGGAUAUCCAAAGAACCACAUGAGGAUCACCCAUGUAAAGAAAGAAUAAGUGGGAGAAGGCUCAAAUAAUAA [Designing denovo 24] | 99.8 | 27.5 |
| AAAAUAUAAAGGAAGGAUAUCCAAAGGACUACAUGAGGAUCACCCAUGUAAAGAAAGAAUAAAUGGGAGAAGGUCCAAAUAAUAA [Designing denovo 32] | 180 | 44 |
| AAACCACAUGAGGAUCACCCAUGUAAAAAUAACGCAGGAUAUGGAAACACGAAAGUGAAACCAGAAGGGUGAAAAG [77%, Mat - Mod of Eli, 15] | 33 | 24.5 |
| AAACCACAUGAGGAUCACCCAUGUAAGAUAUACAUAGGAUAUGCGAAAAGAAACAAAGAAGCAGAAGGGUGGAAAA [75%, Ex sub1, 15] | 54.9 | 100 |
| AAACCACAUGAGGAUCACCCAUGUAGAAAUAUGGGAGGAUAUACAAACACGAAAGUGAAAGUAGAAGGCCUAAAAG [77%, Mat - Mod of Eli, 7] | 118 | 17.7 |
| AAAGACACGGUGCAGGAUAUAGUAAUAGUCACAUGAGGAUCACCCAUGUUCUUUUAUAAGAACGAUUAGAAGGGCGGUGAAAAAA [SameState2 Malc#10] | 92.6 | 182 |
| AAAGACACGGUGCAGGAUAUAUUAAUAGUCACAUGAGGAUCACCCAUGUUCAUUUAUAUGAACGAGUAGAAGGGCGGUGAAAAAA [SameState2 Malc#8] | 110 | 174 |
| AAAGACAUAGUGCAGGAUAUGGUAAUAGUCACAUGAGGAUCACCCAUGUUCUUUUAUAAGAACGAUCAGAAGGGCGGUAAAAAAA [SameState2 Malc#13] | 666 | 359 |
| AAAGACAUAGUUCAGGAUAUGGUAAUAGUCACAUGAGGAUCACCCAUGUUCUUUUAUAAGAACGAUCAGAAGGGAGGUAAAAAAA [SameState2 Malc#14] | 282 | 151 |
| AAAGACGUGGUGUAGGAUAUACUAAUAGUCACAUGAGGAUCACCCAUGUUCAUAUAUAUGAACGAGUAGAAGGACGACGAAAAAA [SameState2 Malc#2] | 95.8 | 70.4 |
| AAAUAAAAGACUAAGGAUAUGUCGCAUGACACAUGAGGAUCACCCAUGUGGUAACACAGAGGGUGGCAGAAGGUAGUCAAAAAAC [Mod 1 of Pariah 6 (Round1) by Hyphema] | 446 | 45.8 |
| AAAUAAAUAAGAGAGGAUAUGUCAGAGAAAACAUGAGGAUCACCCAUGUAAUAAUAAAAAGGGUGACAGAAGGCUCAAAACAAAC [Hyphema modified] | 58.5 | 32.3 |

Reference: the supplement of paper PMC9170038
